In PMC5976236 one finds modal value of adhesion, adhesion force of some binding events and modal value of adhesions data, which are given here for 1 substance.

The target of assay [1] is recombinant human galectin-3 (human) (UniProt P17931). In words: atomic force microscopy force spectroscopy; Gal-3 attached to a slide, mDectin-2 or SIGN-R1 (untreated or PNGase F-treated) on the AFM tips; PBS.
Assay [2] concerns the target Muc2 from colon of wild-type C57BL/6 mice (mouse (endogenous in C57BL/6 colon)) (UniProt Q80Z19). In words: atomic force microscopy force spectroscopy; C-type lectins attached to the AFM tip via the PEG linker, mucin covalently attached to the glass slide; PBS; 1024 force curves.

Muc2 from colon of wild-type C57BL/6 mice (mouse (endogenous in C57BL/6 colon)), sequence (Q80Z19 21-4576): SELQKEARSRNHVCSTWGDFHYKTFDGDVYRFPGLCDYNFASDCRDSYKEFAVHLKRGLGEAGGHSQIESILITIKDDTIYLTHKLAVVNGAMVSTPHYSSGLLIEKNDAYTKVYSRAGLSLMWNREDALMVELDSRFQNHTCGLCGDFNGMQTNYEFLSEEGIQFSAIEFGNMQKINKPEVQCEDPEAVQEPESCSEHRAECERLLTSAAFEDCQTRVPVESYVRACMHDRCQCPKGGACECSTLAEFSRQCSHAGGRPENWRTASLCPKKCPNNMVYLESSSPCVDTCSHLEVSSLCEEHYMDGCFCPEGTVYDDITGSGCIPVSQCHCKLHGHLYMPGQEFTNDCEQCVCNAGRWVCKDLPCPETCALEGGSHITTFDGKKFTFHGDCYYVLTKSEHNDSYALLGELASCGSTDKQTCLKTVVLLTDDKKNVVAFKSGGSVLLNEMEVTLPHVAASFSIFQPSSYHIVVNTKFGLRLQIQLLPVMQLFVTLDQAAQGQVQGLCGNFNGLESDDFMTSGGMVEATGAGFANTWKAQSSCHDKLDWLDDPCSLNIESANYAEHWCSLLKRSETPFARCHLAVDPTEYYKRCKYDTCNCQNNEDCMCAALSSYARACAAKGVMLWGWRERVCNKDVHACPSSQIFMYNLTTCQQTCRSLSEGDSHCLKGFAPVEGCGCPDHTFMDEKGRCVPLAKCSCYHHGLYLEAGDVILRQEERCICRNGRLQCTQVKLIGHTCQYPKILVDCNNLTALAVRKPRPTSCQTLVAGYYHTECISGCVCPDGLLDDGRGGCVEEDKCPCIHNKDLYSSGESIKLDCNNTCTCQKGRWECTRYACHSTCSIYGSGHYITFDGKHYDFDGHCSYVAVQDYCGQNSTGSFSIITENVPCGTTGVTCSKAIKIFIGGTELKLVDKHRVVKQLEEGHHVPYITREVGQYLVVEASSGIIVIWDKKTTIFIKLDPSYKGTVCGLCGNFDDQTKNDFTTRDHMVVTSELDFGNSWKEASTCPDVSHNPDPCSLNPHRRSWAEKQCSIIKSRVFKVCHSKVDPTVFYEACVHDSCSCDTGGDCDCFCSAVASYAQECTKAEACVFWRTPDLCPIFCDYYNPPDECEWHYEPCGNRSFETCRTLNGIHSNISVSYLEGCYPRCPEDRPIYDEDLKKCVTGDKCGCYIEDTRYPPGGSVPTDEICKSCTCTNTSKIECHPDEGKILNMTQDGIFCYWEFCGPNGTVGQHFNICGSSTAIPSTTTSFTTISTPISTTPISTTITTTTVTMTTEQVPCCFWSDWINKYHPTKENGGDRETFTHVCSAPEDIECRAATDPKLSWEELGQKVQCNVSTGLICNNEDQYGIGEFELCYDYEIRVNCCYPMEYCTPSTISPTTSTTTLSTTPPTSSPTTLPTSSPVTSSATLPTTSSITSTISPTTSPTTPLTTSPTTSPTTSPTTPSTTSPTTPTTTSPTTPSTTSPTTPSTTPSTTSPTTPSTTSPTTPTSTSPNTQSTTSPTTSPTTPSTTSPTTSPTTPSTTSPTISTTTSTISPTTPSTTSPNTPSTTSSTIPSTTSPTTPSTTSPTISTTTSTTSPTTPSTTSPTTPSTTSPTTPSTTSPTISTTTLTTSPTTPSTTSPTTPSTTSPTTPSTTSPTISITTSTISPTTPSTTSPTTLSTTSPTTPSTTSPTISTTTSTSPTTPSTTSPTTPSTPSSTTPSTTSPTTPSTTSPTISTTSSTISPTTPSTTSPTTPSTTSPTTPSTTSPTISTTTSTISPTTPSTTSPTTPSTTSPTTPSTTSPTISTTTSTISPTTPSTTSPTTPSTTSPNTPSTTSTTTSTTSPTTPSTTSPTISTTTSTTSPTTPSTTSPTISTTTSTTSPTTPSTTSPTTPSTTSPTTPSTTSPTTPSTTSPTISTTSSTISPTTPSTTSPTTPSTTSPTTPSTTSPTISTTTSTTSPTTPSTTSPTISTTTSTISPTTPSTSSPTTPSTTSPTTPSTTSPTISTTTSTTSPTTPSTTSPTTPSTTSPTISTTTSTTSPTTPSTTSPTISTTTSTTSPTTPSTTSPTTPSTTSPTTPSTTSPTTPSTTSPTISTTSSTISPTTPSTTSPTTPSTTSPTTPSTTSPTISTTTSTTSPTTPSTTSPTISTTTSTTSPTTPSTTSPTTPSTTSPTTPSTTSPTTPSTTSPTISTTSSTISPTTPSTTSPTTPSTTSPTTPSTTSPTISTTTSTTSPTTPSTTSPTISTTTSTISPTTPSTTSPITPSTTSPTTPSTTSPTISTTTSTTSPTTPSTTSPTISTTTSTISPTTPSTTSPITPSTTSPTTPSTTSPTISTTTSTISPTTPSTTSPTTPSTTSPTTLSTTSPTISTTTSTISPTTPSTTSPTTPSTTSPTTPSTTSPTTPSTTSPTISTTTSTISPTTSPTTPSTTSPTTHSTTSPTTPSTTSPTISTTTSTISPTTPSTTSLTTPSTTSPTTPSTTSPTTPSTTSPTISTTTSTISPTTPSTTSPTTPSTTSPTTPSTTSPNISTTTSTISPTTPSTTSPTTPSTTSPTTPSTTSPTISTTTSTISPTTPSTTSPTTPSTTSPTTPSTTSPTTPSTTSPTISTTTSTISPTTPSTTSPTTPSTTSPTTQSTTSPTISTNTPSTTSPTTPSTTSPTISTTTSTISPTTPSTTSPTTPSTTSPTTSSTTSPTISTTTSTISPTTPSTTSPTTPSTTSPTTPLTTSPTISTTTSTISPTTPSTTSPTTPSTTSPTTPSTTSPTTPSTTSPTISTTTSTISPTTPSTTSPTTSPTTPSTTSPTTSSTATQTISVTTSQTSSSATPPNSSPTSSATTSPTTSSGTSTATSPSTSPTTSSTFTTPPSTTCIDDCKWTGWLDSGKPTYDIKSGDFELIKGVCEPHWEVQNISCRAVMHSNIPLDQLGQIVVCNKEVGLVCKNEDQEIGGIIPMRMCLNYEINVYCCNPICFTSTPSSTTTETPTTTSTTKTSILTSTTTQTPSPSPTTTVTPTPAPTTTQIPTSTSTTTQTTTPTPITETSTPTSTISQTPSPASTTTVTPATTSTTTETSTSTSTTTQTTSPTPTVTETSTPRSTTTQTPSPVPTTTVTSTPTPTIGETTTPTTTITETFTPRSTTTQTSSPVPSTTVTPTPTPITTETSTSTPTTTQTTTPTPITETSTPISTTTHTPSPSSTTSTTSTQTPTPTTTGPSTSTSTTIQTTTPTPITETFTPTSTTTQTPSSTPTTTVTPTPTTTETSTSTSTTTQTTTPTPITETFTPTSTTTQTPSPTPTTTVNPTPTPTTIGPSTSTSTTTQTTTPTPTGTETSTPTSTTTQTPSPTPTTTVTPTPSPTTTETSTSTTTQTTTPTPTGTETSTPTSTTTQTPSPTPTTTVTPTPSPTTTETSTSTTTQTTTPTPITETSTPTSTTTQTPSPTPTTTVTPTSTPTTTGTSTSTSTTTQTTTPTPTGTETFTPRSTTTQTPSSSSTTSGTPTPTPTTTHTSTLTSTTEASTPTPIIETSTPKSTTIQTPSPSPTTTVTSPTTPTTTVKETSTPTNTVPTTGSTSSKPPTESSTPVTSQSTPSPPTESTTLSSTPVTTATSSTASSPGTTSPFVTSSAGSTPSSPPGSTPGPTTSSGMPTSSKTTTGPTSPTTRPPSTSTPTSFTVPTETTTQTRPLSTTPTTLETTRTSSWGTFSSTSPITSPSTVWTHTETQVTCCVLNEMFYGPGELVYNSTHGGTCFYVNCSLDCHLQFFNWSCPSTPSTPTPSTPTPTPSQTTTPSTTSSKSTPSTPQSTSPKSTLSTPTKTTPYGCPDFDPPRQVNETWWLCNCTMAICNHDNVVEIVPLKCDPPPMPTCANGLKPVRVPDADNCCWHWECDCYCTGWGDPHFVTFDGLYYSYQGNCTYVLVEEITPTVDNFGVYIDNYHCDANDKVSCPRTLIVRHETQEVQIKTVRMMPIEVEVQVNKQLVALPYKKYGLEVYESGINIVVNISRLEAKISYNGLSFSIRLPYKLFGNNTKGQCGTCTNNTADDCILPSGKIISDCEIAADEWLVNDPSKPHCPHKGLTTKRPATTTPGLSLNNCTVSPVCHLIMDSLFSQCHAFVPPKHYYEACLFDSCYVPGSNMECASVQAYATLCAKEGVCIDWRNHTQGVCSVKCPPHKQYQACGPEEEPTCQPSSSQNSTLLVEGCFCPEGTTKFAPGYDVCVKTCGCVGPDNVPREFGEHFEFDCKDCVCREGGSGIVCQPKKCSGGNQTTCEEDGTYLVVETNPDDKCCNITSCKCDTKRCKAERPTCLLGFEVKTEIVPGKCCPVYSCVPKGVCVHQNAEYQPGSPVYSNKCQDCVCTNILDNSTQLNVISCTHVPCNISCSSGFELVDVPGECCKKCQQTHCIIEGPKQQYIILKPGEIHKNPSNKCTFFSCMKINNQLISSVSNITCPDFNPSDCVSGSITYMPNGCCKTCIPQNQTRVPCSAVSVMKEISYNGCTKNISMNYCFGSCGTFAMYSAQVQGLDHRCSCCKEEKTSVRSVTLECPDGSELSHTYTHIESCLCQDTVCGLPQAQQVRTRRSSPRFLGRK
recombinant human galectin-3 (human), sequence (P17931 whole entry): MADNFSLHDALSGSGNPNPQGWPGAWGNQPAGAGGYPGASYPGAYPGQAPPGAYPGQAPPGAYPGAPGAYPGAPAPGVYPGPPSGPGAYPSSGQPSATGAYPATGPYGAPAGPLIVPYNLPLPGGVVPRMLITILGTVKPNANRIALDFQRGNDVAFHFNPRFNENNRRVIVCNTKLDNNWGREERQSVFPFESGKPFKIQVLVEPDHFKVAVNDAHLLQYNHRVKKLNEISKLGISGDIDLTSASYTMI

On to “recombinant murine SIGN-R1 (from UniProt Q8CJ91 1-325) (receptor)”, for which the modal value of adhesion in assay [1] was 17.1 pN. Moreover, in assay [2], the adhesion force of some binding events was determined as 3210 pN and the modal value of adhesions came to 292 pN.
